Results taken from US20220235103A1 (Molecular Partners, published 2022).
Changes are numbered by the printed parent chain.

B1: vS07_23E04 (designed binder)
chain: MRGSHHHHHHGSDLGKKLLQAARAGQLDEVRELLKAGADVNAKDQEGITPLHVAAHQGHLEIVEVLLKAGADVNAKDVWGRTPLHLAAWRGHLEIVEVLLKAGADVNAKDHAGATPLHAAALSGHLEIVEVLLKAGADVNAQDKSGKTPADLAARAGHQDIAEVLQKAA
notes: also called R3c
B2: vS07_29B10 (designed binder)
chain: B1 chain with Q45R, V53L, H56Q, Q57H, R90Q, H111L, A119V, S123Y
notes: also called R3b
B3: vS07_12C06 (designed binder)
chain: B1 chain with Q45R, I48K, H56Q, Q57E, R90I, H111V, A112S, S123H, K134N
notes: also called R1b; Rb1

target: SARS-CoV-2 spike protein A222V (SARS-CoV-2, UniProt P0DTC2 14-1273); assay: cell-based or functional assay

First: B1
Second: B2
The “VSV Pseudotype Neutralization Assay IC50” value of the first is 5.9-fold higher: 19.5 ng/mL for the first, 3.3 ng/mL for the second.

B3 was tested, and the “VSV Pseudotype Neutralization Assay IC50” value was 4.6 ng/mL.

target: SARS-CoV-2 spike protein G446V (SARS-CoV-2, UniProt P0DTC2 14-1273); assay: cell-based or functional assay

Going from B1 to B2, the “VSV Pseudotype Neutralization Assay IC50” value falls from 2.3 ng/mL to 0.7 ng/mL (3.3-fold).

For B3, the “VSV Pseudotype Neutralization Assay IC50” value was 1.8 ng/mL.

target: SARS-CoV-2 spike protein G476S (SARS-CoV-2, UniProt P0DTC2 14-1273); assay: cell-based or functional assay

Going from B1 to B2, the “VSV Pseudotype Neutralization Assay IC50” value falls from 29 ng/mL to 2.3 ng/mL (13-fold).

With B3 the “VSV Pseudotype Neutralization Assay IC50” value was 3.7 ng/mL.
